Measured values reported in paper PMC9106297, “Structure of a TRAPPII-Rab11 activation intermediate reveals GTPase substrate selection mechanisms” (Science Advances, 2022).

Assays:
Assay in all cases: cryo-EM structure; TRAPPII purified from yeast, incubated with tenfold molar excess of Rab11/Ypt32-7xHis and calf intestine alkaline phosphatase at 4°C overnight (nucleotide-free Rab), complex purified on Calmodulin Sepharose and by SEC; 10 mM tris (pH 8.0), 150 mM NaCl, 0.1% CHAPS, 1 mM Mg acetate, 1 mM dithiothreitol; single-particle cryo-EM
Details in all cases: both partners purified
[1] = target: T1, Trs33 (TRAPP core subunit, in purified TRAPPII) (S. cerevisiae, UniProt Q99394 1-268)
T1 construct: Trs33, S. cerevisiae, endogenous; source: endogenous, purified from S. cerevisiae as a subunit of TRAPPII
T1 sequence (looked up): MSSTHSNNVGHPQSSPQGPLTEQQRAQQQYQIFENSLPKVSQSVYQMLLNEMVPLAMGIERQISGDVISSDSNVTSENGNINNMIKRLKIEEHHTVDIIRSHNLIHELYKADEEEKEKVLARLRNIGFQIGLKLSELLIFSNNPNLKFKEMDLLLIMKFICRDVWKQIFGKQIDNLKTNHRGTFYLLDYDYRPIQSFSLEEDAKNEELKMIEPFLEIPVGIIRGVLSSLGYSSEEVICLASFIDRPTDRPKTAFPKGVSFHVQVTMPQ

[2] = target: T2, Trs130 (TRAPPII-specific subunit, in purified TRAPPII) (S. cerevisiae, UniProt Q03660 1-1102)
T2 construct: Trs130, S. cerevisiae, endogenous copy tagged at the C terminus; source: endogenous, purified from S. cerevisiae as a subunit of TRAPPII; not shown: held on Calmodulin Sepharose), C-terminal, kept
T2 sequence (looked up): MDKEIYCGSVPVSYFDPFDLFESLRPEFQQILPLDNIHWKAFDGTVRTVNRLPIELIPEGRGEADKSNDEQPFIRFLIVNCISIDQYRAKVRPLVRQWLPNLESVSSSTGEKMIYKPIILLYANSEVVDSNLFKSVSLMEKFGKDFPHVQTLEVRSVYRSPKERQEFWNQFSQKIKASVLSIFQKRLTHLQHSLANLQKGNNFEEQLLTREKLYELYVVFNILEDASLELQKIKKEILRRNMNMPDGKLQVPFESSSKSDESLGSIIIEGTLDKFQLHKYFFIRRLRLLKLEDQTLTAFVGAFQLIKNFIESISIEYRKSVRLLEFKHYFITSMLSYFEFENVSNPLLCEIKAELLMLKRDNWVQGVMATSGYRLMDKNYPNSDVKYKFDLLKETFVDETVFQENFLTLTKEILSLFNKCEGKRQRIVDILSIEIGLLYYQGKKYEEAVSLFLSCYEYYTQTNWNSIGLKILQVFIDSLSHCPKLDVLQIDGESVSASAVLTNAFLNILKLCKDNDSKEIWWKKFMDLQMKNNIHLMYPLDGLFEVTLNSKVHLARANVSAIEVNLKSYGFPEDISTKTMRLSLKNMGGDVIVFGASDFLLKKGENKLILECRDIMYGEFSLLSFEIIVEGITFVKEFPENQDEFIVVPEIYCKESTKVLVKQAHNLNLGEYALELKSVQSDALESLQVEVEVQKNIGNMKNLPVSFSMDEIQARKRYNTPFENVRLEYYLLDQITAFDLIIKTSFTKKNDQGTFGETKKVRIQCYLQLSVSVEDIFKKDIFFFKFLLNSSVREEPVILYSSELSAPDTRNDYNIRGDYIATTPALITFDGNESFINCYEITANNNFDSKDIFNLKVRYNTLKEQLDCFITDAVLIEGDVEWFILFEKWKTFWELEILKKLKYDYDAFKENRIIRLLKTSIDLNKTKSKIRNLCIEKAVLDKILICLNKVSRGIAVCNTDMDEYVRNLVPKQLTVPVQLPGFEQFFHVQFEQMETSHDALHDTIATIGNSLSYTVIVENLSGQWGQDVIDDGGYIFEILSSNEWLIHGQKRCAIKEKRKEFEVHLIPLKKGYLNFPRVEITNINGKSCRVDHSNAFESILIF

[3] = target: T3, Bet3 (TRAPP core subunit, in purified TRAPPII) (S. cerevisiae, UniProt P36149 1-193)
T3 construct: Bet3, S. cerevisiae, endogenous; source: endogenous, purified from S. cerevisiae as a subunit of TRAPPII
T3 sequence (looked up): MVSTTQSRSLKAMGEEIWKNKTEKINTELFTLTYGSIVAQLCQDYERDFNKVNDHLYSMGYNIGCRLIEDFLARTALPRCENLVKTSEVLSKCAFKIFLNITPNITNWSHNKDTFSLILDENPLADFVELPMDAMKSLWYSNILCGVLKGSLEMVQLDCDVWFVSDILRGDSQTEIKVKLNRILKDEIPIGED

Measured: binding result

B1: Tca17 (TRAPPII subunit, in purified TRAPPII) (natural protein, S. cerevisiae, UniProt P32613 1-152, looked up)
chain: MSLRPCFVSLIDESDKPILIYVPNEAENEMNDVLKYNVLSNISLDYFESALVEWHSLDSKPLLKSIFQLEGVSVFAMLIKQTGLKIVIGFEQKSLSGADDEFEAINQIFETVRKIYIRVKCNPLLVSGDEKSIIKSLERKFDELFISTEVEL
notes: Tca17, S. cerevisiae, endogenous; source: endogenous, purified from S. cerevisiae as a subunit of TRAPPII
binds: all assays above
